Positions of bridges follow the written chain, without caps; N, C: chain ends. Non-standard residues stand in square brackets, D forms with d. No end group written: not given here. *: point of attachment. Acetyl(2-(4-imidazolyl)) = O=C(Cc1c[nH]cn1)*; Aib = CC(C)(N)C(=O)O
Legend:
Assay in all cases: cell-based or functional assay
[1] = target: human glucagon receptor (human) (UniProt P47871)
[2] = target: human GLP-1 receptor (human) (UniProt P43220)
human glucagon receptor = human glucagon receptor (human, UniProt P47871 26-477)
human glucagon receptor, sequence (P47871 26-477): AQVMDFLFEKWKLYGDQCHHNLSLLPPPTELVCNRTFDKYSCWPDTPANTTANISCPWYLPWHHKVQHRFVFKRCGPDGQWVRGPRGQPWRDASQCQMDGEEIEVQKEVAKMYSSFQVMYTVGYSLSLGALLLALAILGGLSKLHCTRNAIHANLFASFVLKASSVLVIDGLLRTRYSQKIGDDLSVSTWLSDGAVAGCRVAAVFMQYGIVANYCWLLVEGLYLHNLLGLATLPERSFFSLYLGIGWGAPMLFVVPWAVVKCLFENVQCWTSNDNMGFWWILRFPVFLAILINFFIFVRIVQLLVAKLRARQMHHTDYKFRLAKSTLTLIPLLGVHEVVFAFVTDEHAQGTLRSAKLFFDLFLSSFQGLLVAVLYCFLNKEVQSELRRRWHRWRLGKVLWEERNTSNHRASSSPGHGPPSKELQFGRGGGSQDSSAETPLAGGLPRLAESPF

human GLP-1 receptor (human), sequence (P43220 24-463): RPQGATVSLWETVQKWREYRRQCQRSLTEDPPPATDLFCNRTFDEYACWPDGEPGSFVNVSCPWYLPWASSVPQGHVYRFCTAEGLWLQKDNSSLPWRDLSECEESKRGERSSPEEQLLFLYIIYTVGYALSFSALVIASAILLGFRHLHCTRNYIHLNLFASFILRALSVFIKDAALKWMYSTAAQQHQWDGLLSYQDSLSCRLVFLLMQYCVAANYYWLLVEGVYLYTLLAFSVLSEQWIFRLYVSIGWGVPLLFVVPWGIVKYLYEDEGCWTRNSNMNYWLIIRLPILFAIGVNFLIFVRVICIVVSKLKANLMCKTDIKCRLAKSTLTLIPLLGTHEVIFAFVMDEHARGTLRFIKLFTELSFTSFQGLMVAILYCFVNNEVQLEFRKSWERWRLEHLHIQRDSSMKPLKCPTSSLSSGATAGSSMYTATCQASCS
human glucagon receptor (human), sequence (P47871 26-477): as the sequence (P47871 26-477) above

[Acetyl(2-(4-imidazolyl))]SQGTFTSDYSKYLDERRAQDFVAWLKNTGPSSGAPPPS [oxyntomodulin analog (SEQ ID NO: 3)]
EC50 (nM), cAMP, CHO/GCGR [1]: 638 nM | EC50 (nM), cAMP, CHO/GLP-1R [2]: > 1000 nM

[Acetyl(2-(4-imidazolyl))]SQGTFTSDLSRQLEEEAVRLFIEWLMNK [oxyntomodulin analog (SEQ ID NO: 8)]
EC50 (nM), cAMP, CHO/GCGR [1]: > 1000 nM | EC50 (nM), cAMP, CHO/GLP-1R [2]: 420 nM

[Acetyl(2-(4-imidazolyl))]SQGTFTSDYSRYLDEEAVRLFIEWIRNGGPSSGAPPPSK [oxyntomodulin analog (SEQ ID NO: 18)]
EC50 (nM), cAMP, CHO/GCGR [1]: > 1000 nM | EC50 (nM), cAMP, CHO/GLP-1R [2]: 96.3 nM

H[Aib]QGTFTSDYSKYLDEKRAKEFVQWLMNTC [oxyntomodulin analog (SEQ ID NO: 24)]
EC50 (nM), cAMP, CHO/GCGR (human glucagon receptor): 6.95 nM

H[Aib]QGTFTSDYSKYLDEKRAKEFVQWLMNTC (bridge 16-20) [oxyntomodulin analog (SEQ ID NO: 25)]
EC50 (nM), cAMP, CHO/GCGR (human glucagon receptor): 1.3 nM

Y[Aib]QGTFTSDYSKYLDEKRAKEFVQWLMNTC (bridge 16-20) [oxyntomodulin analog (SEQ ID NO: 34)]
EC50 (nM), cAMP, CHO/GCGR (human glucagon receptor): 1.04 nM
